Residue numbers refer to the chain shown, from its start.

B1: Chimeric 701C1 (antibody, V domains shown)
VH: EVQLQQSGPELVKPGASVKMSCKASGYTFTSYVIHWVKQKPGQGLEWIGYIDPSNDDTKYNEKFKGKATLTSDKSSSTAYMELSSLTSEDSAVYYCAREAYYGGLYGMDYWGQGTSVTVSS
VL: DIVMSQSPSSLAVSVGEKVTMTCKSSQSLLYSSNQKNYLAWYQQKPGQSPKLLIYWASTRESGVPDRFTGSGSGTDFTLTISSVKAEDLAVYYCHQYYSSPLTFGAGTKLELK
notes: Mouse variable domains in human IgG4Pro (Ser228Pro) backbone; also called 701C1 in human IgG4Pro backbone
B2: Chimeric 708E4 (antibody, V domains shown)
VH: QIQLQQSGPELVKPGASVKISCKASGYTFTDYYLNWVKQRPGHGLEWIGWIYPGSSDTKHNENFKGKATLTVDTYSSTAYMQLGSLTSEDSAVYFCTRYSNFFFDYWGQGTTLTVSS
VL: DIVMTQSQKFLSTSVGDRVRVTCKASQNVVTYVAWYQQKPGQSPKSLIYSASYRYSGVPDRFTGSGSGTYFTLTINNVQFEDLAEYFCQQYHSYPYTFGGGTKLEIK
notes: Mouse variable domains in human IgG4Pro (Ser228Pro) backbone; also called 708E4 in human IgG4Pro backbone
B3: Chimeric 709A6 (antibody, V domains shown)
VH: QVTLKESGPGILQPSQTLSLTCSFSGFSLSTSGMGVSWIRQPSGKGLEWLTHIYWDDDKRYNPSLKSRLTISKDTSRNQVFLEITSVDTADTATYFCARSSQGLYSSYDYWGQGTTLTVSS
VL: DIVLTQSPASLAVSLGQRATISCRASESVDIYGISFLHWYQQKPGQPPKHLIYRASNLDSGIPARFSGSGSRTDFTLTINPVETDDVATYYCQQSNKDPLTFGAGTKLELK
notes: Mouse variable domains in human IgG4Pro (Ser228Pro) backbone; also called 709A6 in human IgG4Pro backbone
B4: Chimeric 306E6 (antibody, V domains shown)
VH: EVQLQQSGPELVKPGSSVKISCKASGYTFTDYYVNWVKQSHGKSLEWFGDIHPNSGDTTYNQKFKDKATLTVDKSSSTAYMELRSLTSEDSAVYYCARRRYDYDGFAYWGQGTLVTVSA
VL: EIVMTQAAFSNPVTLGTSASISCRSSKSLLHRNGITYLYWYLQKPGQSPQLLIYEMSNLASGVPDRFSSSGSGTDFTLRISRVEAEDVGVYYCGQNLEFPLTFGAGTKLELK
notes: Mouse variable domains in human IgG4Pro (Ser228Pro) backbone; also called 306E6 in human IgG4Pro backbone
B5: Chimeric 502H1 (antibody, V domains shown)
VH: QVTLKESGPGILQPSQTLSLTCSFSGFSLSTSGMGVTWIRKPSGQGLEWLAHIFWDGDKRYNPSLKSRLTISKDSSSNQVFLMITGVGTADAATYYCARYYYFDYGYAIDYWGQGTSVTVSS
VL: B4 VL with E1D, S10Y, E55Q, T74A, G94A, F99L
notes: Mouse variable domains in human IgG4Pro (Ser228Pro) backbone; also called 502H1 in human IgG4Pro backbone
B6: Chimeric 307A3 (antibody, V domains shown)
VH: B4 VH with S16A, S55N, D57G, T58I, D66G, T69S
VL: B4 VL with S69G
notes: Mouse variable domains in human IgG4Pro (Ser228Pro) backbone; also called 307A3 in human IgG4Pro backbone
B7: Chimeric 701E9 (antibody, V domains shown)
VH: QVQLQQSGPELVKPGASVKLSCKASGYTFIDYTIHWVKQSPGQGLEWIGWIFPGSTNDTKYNDKFKGKATMTADKSSSTAYMQLSSLTSEDSAVYFCARYRTDFDYWGQGTTLTVSS
VL: DIQMTQSPSSLSASLGERVSLTCRASQEISGYLSWLQQKPDGTIKRLIYAASTLDSGVPKRFSGSRSGSDYSLTISSLESEDFADYYCLQYASYPLTFGAGTKLELK
notes: Mouse variable domains in human IgG4Pro (Ser228Pro) backbone; also called 701E9 in human IgG4Pro backbone
B8: Chimeric 811G3 (antibody, V domains shown)
VH: QIQLQQSGPEVVKPGASVKISCKASGYTFTDYYINWVKQRPGQGLEWIGWIYPGGGHTKYNEKFKGEATLTVDTSSRTAYMQLSSLTSEDSAVYFCARYSNYYFDFWGHGTTLTVSS
VL: B7 VL with L15P, A50V, S93N, L96Y, A100G, L106I
notes: Mouse variable domains in human IgG4Pro (Ser228Pro) backbone; also called 811G3 in human IgG4Pro backbone
B9: Chimeric 414A12 (antibody, V domains shown)
VH: QVQLQQPGAELVKPGASVKLSCKASGHTFTSNWIHWVKQRPGQGLEWIGEIDPSDSYTYYNQKFKGKATLTVDKSSSTAYMQLSSLTSEDSAVYSCACPGRNSNFAYWGQGTTLTVSS
VL: DILMTQSPSSMSVSLGDTVSITCHASQGINNNIGWLQQKPGKSFKGLIYHKSNLEDGVPSRFSGSGSGADYSLTISSLESEDFADYYCVQYAQFPYTFGGGTKLEIK
notes: Mouse variable domains in human IgG4Pro (Ser228Pro) backbone; also called 414A12 in human IgG4Pro backbone
B10: Chimeric 814E10 (antibody, V domains shown)
VH: QIQLQQSGPELVKPGASVKISCKASGYTFTSYYIQWVKQRPGQGLEWIGWIYPGDGTTNYNENFKGKTTLTADKSSSTVYMLLSSLTSEDSAVYFCARYGLVPFDYWGQGTTLTVSS
VL: DIQMTQTTSSLSASLGDRVTISCSASQDIINYLNWYQQKPDGTVKLLIYSTSSLHSGVSLRFSGSGSGTDYSLTISNLEPEDVATYYCHQYSQLPYTFGGGTKLEIK
notes: Mouse variable domains in human IgG4Pro (Ser228Pro) backbone; also called 814E10 in human IgG4Pro backbone
B11: Chimeric 803E6 (antibody, V domains shown)
VH: EVKLVESEGGLVQPGSSMKLSCTASGFTFSDYYMAWVRQVPEKGLEWVANINYDGFNTYYLDSLKSRFIISRDNAKNILYLQMSSLKSEDTATYYCARGGYWSLYFDYWGQGTTLTVSS
VL: DIVMTQSPSSLTVTAGEKVTMSCKSSQSLLHSGNQKNYMTWYQQKPGQPPKLLIYWASTRESGVPDRFTGSGSGTDFTLTISSVQAEDLAVYYCQNDYSYPLTFGAGTKLELK
notes: Mouse variable domains in human IgG4Pro (Ser228Pro) backbone; also called 803E6 in human IgG4Pro backbone
B12: Chimeric 313C12 (antibody, V domains shown)
VH: EVQLVESGGGLVKPGGSLKLSCAASGFTFSDYGMHWVRQTPEKGLEWIAYINSDSNTIYYADTVKGRFTISRDNARKTLYLQMTSLRSEDTAMYYCSPLVAPDYWGQGTTLTVSS
VL: DIVMTQSQKFMSTTVGDRVSITCKASQNVGTAVAWYQQKPGQSPKLLIYSVSNRYTGVPDRFTGSGSGTDFTLTISNMQSEDLADYFCQQYSSYPFTFGAGTKLELK
notes: Mouse variable domains in human IgG4Pro (Ser228Pro) backbone; also called 313C12 in human IgG4Pro backbone
B13: 701C1 (mouse IgG1 backbone) (antibody, V domains shown)
VH: B1 VH
VL: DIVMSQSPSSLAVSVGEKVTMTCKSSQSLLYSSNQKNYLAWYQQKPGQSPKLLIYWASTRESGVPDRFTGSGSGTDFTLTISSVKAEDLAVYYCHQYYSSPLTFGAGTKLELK
B14: 709A6 (mouse IgG1 backbone) (antibody, V domains shown)
VH: B3 VH
VL: B3 VL
B15: 502H1 (mouse IgG1 backbone) (antibody, V domains shown)
VH: B5 VH
VL: B4 VL with E1D, S10Y, E55Q, T74A, G94A, F99L
B16: 307A3 (mouse IgG1 backbone) (antibody, V domains shown)
VH: B4 VH with S16A, S55N, D57G, T58I, D66G, T69S
VL: B4 VL with S69G
B17: 701E9 (mouse IgG1 backbone) (antibody, V domains shown)
VH: B7 VH
VL: B7 VL
B18: 811G3 (mouse IgG1 backbone) (antibody, V domains shown)
VH: B8 VH
VL: B7 VL with L15P, A50V, S93N, L96Y, A100G, L106I
B19: 803E6 (mouse IgG1 backbone) (antibody, V domains shown)
VH: B11 VH
VL: B11 VL

In the first experiment the target is T1, recombinant human PD-1 (human, UniProt Q15116 25-167, limits assumed).
T1 construct: Soluble recombinant protein used in SPR; also called PDCD1; purified recombinant human PD-1
T1 sequence (Q15116 25-167 limits assumed): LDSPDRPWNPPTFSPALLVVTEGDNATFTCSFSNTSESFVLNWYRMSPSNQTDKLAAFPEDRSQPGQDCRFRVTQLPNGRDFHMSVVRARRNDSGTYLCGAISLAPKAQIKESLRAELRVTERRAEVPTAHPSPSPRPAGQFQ
The experiment in a line: SPR, ProteOn XPR36. The procedure:
Kinetics and binding affinities were measured using the ProteOn™ XPR36 (Biorad, Hercules, CA) surface plasmon resonance optical biosensor using material generated from transient transfection following single column purification.
Background: In SPR one partner is held on a chip, and binding of the other changes the refractive index at the surface.
A word on the Kd: it is a measure of binding affinity in units of concentration. Usually koff stands for the first-order rate constant of dissociation. In general, kon refers to the second-order rate constant of association. For B1, the Kd is 13 nM, the koff came out at 0.000305 s⁻¹ and the kon is 23400 M⁻¹ s⁻¹.
Taken in the same sequence, the figures for B2 were 8.08 nM, 0.000348 s⁻¹ and 43100 M⁻¹ s⁻¹.
Taken in the same sequence, the figures for B3 were 5.52 nM, 0.000483 s⁻¹ and 87400 M⁻¹ s⁻¹.
For B4, the equilibrium dissociation constant (Kd) was determined as 56.4 nM, the koff amounted to 0.00765 s⁻¹ and the kon was 136000 M⁻¹ s⁻¹.
B5: the Kd was 6.39 nM, the dissociation rate constant (koff) came out at 0.000349 s⁻¹ and the kon was 54700 M⁻¹ s⁻¹.
For B6, in that order: 63.5 nM, 0.0074 s⁻¹ and 116000 M⁻¹ s⁻¹.
Taken in the same sequence, the figures for B7 were 1.62 nM, 0.000143 s⁻¹ and 88300 M⁻¹ s⁻¹.
As to B8, the dissociation constant (Kd) came to 9.14 nM, the off-rate (koff) turned out to be 0.000801 s⁻¹ and the kon is 87700 M⁻¹ s⁻¹.
Turning to B9, the Kd amounted to 1.5 nM, the off-rate constant (koff) is 0.000269 s⁻¹ and the kon turned out to be 180000 M⁻¹ s⁻¹.
For B10, in that order: 1.85 nM, 0.000149 s⁻¹ and 80700 M⁻¹ s⁻¹.
Taken in the same sequence, the figures for B11 were 5.02 nM, 0.00053 s⁻¹ and 106000 M⁻¹ s⁻¹.
For B12, in that order: 0.859 nM, 5.77e-05 s⁻¹ and 67100 M⁻¹ s⁻¹.

For a further experiment, the target named is human PD-1 expressed on cells (human, UniProt Q15116 25-288). The experiment in a line: cell-based or functional assay.
Sequence of human PD-1 expressed on cells (Q15116 25-288): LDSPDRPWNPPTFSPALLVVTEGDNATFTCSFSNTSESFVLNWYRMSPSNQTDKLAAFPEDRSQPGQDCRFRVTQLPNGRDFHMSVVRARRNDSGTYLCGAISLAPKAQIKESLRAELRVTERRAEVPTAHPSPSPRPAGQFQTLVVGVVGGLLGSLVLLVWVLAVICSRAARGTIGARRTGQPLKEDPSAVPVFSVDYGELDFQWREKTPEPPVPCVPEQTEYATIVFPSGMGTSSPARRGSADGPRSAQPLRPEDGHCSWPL
For the molecule B13, the “Emax Values (%), inhibition of NFAT activity” value (shortened to “Emax Values (%), inhibition”) amounted to 53.2% and the “IC50 Values (nM), inhibition of NFAT activity” value (“IC50 Values (nM), inhibition” for short) was found to be 1.69 nM.
With B14, the “Emax Values (%), inhibition” value was 29.8% and the “IC50 Values (nM), inhibition” value is 0.04 nM.
For B15, in that order: 48.9% and 0.34 nM.
With B16, the “Emax Values (%), inhibition” value stood at 42.6% and the “IC50 Values (nM), inhibition” value was 1.03 nM.
Turning to B17, the “Emax Values (%), inhibition” value turned out to be 46% and the “IC50 Values (nM), inhibition” value is 0.22 nM.
For B18, in that order: 44.5% and 0.14 nM.
Taken in the same sequence, the figures for B19 were 48.3% and 0.38 nM.

These data come from patent US20260070984A1 (Boehringer Ingelheim, published 2026).
